Results published in patent US20090074762A1.

Molecular target: T1, TweakR on cells (TweakR-expressing cells, TweakR transfectant cell line, A375 melanoma cells, tumor tissue) (human) (UniProt Q9NP84)
T1 sequence: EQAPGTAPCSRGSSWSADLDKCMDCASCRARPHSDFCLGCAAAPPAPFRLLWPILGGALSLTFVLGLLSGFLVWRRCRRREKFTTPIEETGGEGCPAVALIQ
Test: cell-based or functional assay

- agonist activity (IL-8 release assay): 12%
B1: anti-TweakR antibody ITEM4 (antibody, from another filing, V domains shown)
VH: QVQLQQSGPELVKPGASVKMSCKASGYTFTDFIIAWVKQRTGQGLEWIGEIYPGTGRTYYSEKFRGKATLTADKSSNTAYMQLSSLTSVDSAVYFCARRTIYYDYDGDYWGQGTTLTVSS
VL: DIVMTQAAFSNPVTLGTSASISCRSSKSLLHSNGITYLYWYLQKPGQSPQLLIYQMSNLASGVPDRFSSSGSGTDFTLRISRVEAEDVGVYYCAHNLELPWTFGGGTKLELK
